Test results reported in PMC7430637, “Alternative splicing and allosteric regulation modulate the chromatin binding of UHRF1” (Nucleic Acids Research, 2020).

What was measured:
Assay in all cases: fluorescence polarisation; FAM-labelled H3(1-15) peptide, recombinant protein titrated; RT; as described (ref. 28)
Details in all cases: both partners purified
[1] = target: T1, mTTD-PHD V1 P-patch* (P293A/P294A/P295A) (mouse, UniProt Q8VDF2-1 122-380, P293A | P294A | P295A)
T1 construct: UHRF1, mouse, splicing variant V1 (NCBI NP_001104550.1), TTD-Linker 2-PHD, residues 122-380 as told for wild-type mTTD-PHD V1; source: E. coli BL21(DE3) RIL, purified (HisPur Cobalt-Resin)
T1 sequence (looked up): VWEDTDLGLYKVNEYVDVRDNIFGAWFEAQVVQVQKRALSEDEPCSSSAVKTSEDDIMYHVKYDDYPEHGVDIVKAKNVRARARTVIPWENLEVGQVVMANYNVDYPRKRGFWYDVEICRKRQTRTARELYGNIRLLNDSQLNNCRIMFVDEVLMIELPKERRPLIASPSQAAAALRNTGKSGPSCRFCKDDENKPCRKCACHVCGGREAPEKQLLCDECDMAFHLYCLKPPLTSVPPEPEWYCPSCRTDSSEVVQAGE

[2] = target: T2, mUHRF1 V1 P-patch/R-S* (P293A/P294A/P295A/R298A/N299A/T300A/G301A/K302A/S303A), full-length (mouse, UniProt Q8VDF2-1 1-782, P293A | P294A | P295A | R298A | N299A | T300A | G301A | K302A | S303A)
T2 construct: UHRF1, mouse, splicing variant V1, NCBI NP_001104550.1, with nine alanine substitutions in Linker 2; source: E. coli BL21(DE3) RIL, purified (HisPur Cobalt-Resin)
T2 sequence (looked up): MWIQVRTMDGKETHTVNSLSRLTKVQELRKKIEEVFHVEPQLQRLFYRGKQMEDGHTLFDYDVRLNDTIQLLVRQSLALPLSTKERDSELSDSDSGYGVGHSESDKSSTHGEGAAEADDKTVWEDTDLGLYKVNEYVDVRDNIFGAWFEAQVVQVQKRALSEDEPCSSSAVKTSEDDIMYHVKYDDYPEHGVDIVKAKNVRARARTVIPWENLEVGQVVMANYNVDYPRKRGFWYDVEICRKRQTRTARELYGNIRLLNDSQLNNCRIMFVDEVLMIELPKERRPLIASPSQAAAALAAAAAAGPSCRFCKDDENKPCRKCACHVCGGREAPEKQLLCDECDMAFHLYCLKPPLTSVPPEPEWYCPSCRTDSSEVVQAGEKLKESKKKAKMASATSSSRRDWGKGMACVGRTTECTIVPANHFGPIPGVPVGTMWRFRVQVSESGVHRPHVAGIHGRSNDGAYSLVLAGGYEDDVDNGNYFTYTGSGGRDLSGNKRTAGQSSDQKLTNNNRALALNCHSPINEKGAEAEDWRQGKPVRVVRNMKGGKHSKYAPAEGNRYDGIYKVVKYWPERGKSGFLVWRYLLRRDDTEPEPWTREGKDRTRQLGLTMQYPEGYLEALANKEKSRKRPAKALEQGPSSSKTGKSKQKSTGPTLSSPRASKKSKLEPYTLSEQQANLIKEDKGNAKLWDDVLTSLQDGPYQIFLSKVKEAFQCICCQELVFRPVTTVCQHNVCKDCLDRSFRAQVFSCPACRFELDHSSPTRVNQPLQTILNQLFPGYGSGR

[3] = target: T3, mTTD-PHD V1 R298* (R298A) (mouse, UniProt Q8VDF2-1 122-380, R298A)
T3 construct: UHRF1, mouse, splicing variant V1 (NCBI NP_001104550.1), TTD-Linker 2-PHD, residues 122-380 as told for wild-type mTTD-PHD V1; source: E. coli BL21(DE3) RIL, purified (HisPur Cobalt-Resin)
T3 sequence (looked up): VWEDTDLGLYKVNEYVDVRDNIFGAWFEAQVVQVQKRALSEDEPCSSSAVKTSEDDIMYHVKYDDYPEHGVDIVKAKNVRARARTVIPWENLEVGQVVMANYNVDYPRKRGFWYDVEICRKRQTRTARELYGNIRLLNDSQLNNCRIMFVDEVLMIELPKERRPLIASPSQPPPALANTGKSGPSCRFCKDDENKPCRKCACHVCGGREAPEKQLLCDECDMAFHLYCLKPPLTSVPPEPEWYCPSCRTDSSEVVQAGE

[4] = target: T4, mUHRF1 V1 R-S* (R298A/N299A/T300A/G301A/K302A/S303A), full-length (mouse, UniProt Q8VDF2-1 1-782, R298A | N299A | T300A | G301A | K302A | S303A)
T4 construct: UHRF1, mouse, splicing variant V1, NCBI NP_001104550.1, with six alanine substitutions in Linker 2; source: E. coli BL21(DE3) RIL, purified (HisPur Cobalt-Resin)
T4 sequence (looked up): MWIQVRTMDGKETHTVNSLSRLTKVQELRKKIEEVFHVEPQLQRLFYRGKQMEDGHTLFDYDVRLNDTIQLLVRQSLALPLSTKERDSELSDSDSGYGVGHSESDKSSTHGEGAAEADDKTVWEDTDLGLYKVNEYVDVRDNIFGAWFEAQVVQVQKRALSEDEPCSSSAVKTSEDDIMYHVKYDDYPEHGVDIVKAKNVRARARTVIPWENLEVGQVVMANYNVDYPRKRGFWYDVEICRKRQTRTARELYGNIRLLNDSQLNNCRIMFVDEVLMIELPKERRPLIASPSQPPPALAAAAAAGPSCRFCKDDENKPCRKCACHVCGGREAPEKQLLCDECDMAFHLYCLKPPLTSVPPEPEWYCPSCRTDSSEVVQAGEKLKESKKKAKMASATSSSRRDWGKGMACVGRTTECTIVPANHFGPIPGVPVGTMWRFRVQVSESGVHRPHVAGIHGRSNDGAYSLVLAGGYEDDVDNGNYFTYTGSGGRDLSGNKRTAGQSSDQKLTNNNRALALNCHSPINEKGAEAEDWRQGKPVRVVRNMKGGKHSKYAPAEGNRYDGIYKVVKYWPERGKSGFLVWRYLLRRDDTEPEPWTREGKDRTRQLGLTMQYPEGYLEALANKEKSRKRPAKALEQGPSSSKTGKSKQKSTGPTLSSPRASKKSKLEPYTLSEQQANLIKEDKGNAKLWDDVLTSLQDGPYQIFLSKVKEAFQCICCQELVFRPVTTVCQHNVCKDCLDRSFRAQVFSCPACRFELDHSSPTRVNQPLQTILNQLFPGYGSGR

[5] = target: T5, mUHRF1 V1 mLinker 2 V1* (P293A/P294A/P295A/L297A/R298A/N299A/T300A/G301A/K302A/S303A), full-length (mouse, UniProt Q8VDF2-1 1-782, P293A | P294A | P295A | L297A | R298A | N299A | T300A | G301A | K302A | S303A)
T5 construct: UHRF1, mouse, splicing variant V1, NCBI NP_001104550.1, with ten alanine substitutions in Linker 2; source: E. coli BL21(DE3) RIL, purified (HisPur Cobalt-Resin)
T5 sequence (looked up): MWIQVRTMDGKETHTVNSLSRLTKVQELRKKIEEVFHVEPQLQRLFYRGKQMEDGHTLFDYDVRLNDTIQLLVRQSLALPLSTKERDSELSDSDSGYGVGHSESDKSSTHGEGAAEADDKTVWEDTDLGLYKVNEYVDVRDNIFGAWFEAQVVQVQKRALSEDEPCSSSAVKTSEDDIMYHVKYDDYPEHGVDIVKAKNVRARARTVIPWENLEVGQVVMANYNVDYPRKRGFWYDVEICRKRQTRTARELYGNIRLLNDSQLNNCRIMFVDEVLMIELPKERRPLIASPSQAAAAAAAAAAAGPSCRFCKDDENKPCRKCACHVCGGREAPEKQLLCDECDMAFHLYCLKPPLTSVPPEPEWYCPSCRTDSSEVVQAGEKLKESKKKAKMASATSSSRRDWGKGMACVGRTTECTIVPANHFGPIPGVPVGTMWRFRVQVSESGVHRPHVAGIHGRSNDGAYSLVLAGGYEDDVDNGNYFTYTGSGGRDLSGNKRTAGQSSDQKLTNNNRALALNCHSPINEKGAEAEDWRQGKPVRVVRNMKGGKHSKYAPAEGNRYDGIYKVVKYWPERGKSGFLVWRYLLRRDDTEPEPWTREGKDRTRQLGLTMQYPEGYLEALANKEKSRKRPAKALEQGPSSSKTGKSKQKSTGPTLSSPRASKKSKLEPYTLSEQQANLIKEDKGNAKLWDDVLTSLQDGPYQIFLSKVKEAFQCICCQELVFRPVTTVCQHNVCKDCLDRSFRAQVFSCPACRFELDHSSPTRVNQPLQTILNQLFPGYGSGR

B1: FAM-H3(1-15)K9me3 peptide (N-terminally fluorescein-labelled) (peptide)
peptide: ARTKQTARKSTGGKA
modifications: fluorescein (FAM) on the N-terminus; K9 trimethylated
notes: histone H3 aa 1-15; also called FAM-H3K9me3; source: synthetic peptide (Synpeptide Co., Ltd)
In the case of B1, the Kd [1] is reported as 10.2 ± 0.3 µM, the Kd [2] is reported as 13.9 ± 0.8 µM and the Kd [3] is reported as 5.9 ± 0.5 µM. It also gave a Kd [4] of 11.1 ± 0.3 µM and a Kd [5] of 12.6 ± 0.5 µM.
